Experiment [1] has as its target T1, FLAG-tagged SSB-1 truncated form lacking only the SOCS box (mouse, UniProt Q9D5L7 1-231, limits assumed).
T1 construct: domain: SSB-1 lacking only the SOCS box; Transiently expressed in 293T cells; also called truncated form of SSB-1 lacking only the SOCS box
T1 sequence: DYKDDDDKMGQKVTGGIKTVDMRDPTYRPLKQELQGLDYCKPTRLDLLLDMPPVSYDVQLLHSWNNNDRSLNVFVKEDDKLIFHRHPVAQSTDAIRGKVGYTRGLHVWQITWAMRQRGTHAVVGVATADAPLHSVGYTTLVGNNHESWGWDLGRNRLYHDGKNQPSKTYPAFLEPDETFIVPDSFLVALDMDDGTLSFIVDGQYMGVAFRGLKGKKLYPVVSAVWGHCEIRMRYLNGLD
Description: co-immunoprecipitation with anti-myc from transfected 293T cells, Western blot with anti-FLAG. An excerpt: To further confirm the generality of this interaction for other proteins containing a SOCS box, 293T fibroblasts were transfected with N-terminally FLAG-tagged WSB-2 or SSB-1 along with elongin B containing a FLAG epitope or elongin C containing a myc epitope.

The target in experiment [2] is T2, elongin C (endogenous, murine M1 cells) (murine, UniProt P83940 1-112).
T2 construct: Endogenous protein from cell lysate; present together with elongin B; also called 15 kDa band
Description: anti-FLAG M2 immunoprecipitation from M1 cells, FLAG peptide elution, Western blot. The method, then: FIG. 2 is a photographic representation showing competition of SOCS-1 SOCS box interaction with elongin C. Biotinylated SOCS-1 SOCS box peptide was immobilized on streptavidin-agarose resin and used to affinity purify interacting proteins from M1 cellular extracts in the presence (+) or absence (–) of […] competing non-biotinylated SOCS box peptides. Proteins were separated by SDS-PAGE on a 4–15% w/v acrylamide gel, and bands were visualized by silver staining. Soluble SOCS box peptides corresponding to SOCS-1, ASB-2 and WSB-2 prevented binding of elongin C to immobilized SOCS-1 SOCS box FIG. 3 is a photographic representation showing interaction of SOCS-1 with endogenous elongins B and C. Cellular extracts from M1 cells stably expressing either full-length SOCS-1 or SOCS-1 lacking SOCS box (both proteins were N-terminally FLAG-tagged) were incubated with anti-FLAG antibody M2 resin and bound cellular proteins were eluted from the columns with FLAG peptide as described in Materials and Methods. Lanes 1–3 correspond to column eluates 3 to 5 from M1 cells expressing full-length SOCS-1 and lanes 4–6 correspond to column eluates 3 to 5 from M1 cells expressing SOCS-1 lacking SOCS box. The panels from top to bottom correspond to Western blot analyses by anti-FLAG, anti-elongin C, anti-elongin B, and a mixture of anti-elongin B and anti-elongin C, respectively. […]

The target of experiment [3] is JAK1 (endogenous, M1 cells) (murine, UniProt P52332 1-1153). Description: anti-FLAG affinity column from unstimulated M1 cells, FLAG peptide elution, Western blot. An excerpt:
(§1) The inventors passed lysates from 10^9 unstimulated M1 cells expressing FLAG-tagged SOCS-1 through an anti-FLAG affinity column which was then eluted with FLAG peptide. The eluate was then subjected to SDS-PAGE and the proteins were Western blotted. The blot was then probed with anti-FLAG antibodies to confirm the presence of SOCS-1 and with a range of antibodies against proteins thought to interact with SOCS-1 (FIG. 7). It can be seen that SOCS-1 is capable of forming a complex with elongin B and elongin C, cullin 2, as well as JAK1 and gp130. To determine whether proteins in this complex interact directly or indirectly with SOCS-1, or whether all the proteins can be found together in a single complex, or whether separate complexes are, for example, formed between SOCS-1, JAK-1 and gp130 on one hand and between SOCS-1, elongin B and C and cullin-2, is addressed in part by performing the primary immunoprecipitation using a different antibody.

For experiment [4], the target named is T3, gp130 (endogenous, M1 cells) (murine, UniProt Q00560 23-917).
T3 sequence (looked up): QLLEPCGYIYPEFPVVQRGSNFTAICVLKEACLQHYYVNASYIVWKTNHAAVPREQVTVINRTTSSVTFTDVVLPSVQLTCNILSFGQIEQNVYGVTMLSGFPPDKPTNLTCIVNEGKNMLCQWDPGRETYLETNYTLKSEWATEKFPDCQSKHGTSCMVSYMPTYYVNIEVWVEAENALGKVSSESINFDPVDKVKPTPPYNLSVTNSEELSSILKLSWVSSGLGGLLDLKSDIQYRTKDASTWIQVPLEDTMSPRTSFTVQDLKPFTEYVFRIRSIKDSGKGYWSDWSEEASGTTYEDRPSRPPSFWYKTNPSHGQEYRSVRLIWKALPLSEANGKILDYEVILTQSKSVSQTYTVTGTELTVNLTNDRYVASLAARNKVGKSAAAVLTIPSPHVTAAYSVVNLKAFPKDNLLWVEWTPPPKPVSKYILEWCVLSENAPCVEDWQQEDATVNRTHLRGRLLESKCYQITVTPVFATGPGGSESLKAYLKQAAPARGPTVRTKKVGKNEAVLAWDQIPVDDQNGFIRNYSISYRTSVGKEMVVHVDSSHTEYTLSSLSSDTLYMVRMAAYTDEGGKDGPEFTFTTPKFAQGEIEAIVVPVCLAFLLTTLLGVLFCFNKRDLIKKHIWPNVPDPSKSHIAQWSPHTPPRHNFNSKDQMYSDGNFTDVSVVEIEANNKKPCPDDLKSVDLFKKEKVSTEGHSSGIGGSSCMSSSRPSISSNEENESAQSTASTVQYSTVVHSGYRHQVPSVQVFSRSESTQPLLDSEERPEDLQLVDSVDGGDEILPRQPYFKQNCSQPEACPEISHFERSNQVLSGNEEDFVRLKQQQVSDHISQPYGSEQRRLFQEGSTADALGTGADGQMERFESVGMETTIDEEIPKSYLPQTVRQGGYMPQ
The experiment is described as above.
From the text: as §1

Experiment [5] addresses cullin 2 (endogenous, M1 cells) (murine, UniProt Q9D4H8 1-745). The description is as above.
From the text: as §1

In experiment [6] the target is T4, GST (glutathione-S-transferase control) (UniProt P08515 1-218 = GST, covalently coupled to NHS-activated Sepharose resin).
T4 construct: also called GST-Sepharose; GST control
Description: GST-Sepharose pull-down from M1 cell lysate, Coomassie gel and Western blot. As for the experimental part:
M1 cells (2 ×10^10) were lysed on ice for 30 min in 100 ml of lysis buffer supplemented with protease inhibitors (Complete Cocktail tablets; Boehringer Mannheim, Mannheim, Germany), 1 mM PMSF, 1 mM Na_3VO_4 and 1 mM NaF. The total cell lysate was centrifuged at 15,000 rpm (SS34 rotor) for 15 min at 4° C. and the clarified supernatant pre-incubated with 1 ml of GST-Sepharose resin for 2 h at 4° C. Half the GST-Sepharose-depleted M1 cell lysate was incubated with 1 ml of GST-SOCS-1 SOCS box- and the other half with GST-SOCS-3 SOCS box-Sepharose resin for 2 h at 4° C. The affinity resins were washed with 40 ml of lysis buffer and then eluted with 8×0.5 ml of elation buffer. Eluates were concentrated to ~40 μl, mixed with 15 μl of 4×SDS sample buffer containing 0.4 M DTT and resolved on a 14% polyacrylamide gel (Novex). The gel was stained for 5 min with 0.1% w/v Coomassie blue in 50% w/v methanol and destained in 12% w/v methanol and 7% w/v acetic acid.
Isolated SOCS box sequences were used as affinity reagents to identify interacting proteins in cell lysates. […] (GST) fusion proteins containing the SOCS box sequences from SOCS-1 or SOCS-3 were coupled to Sepharose beads and used as affinity resins to bind proteins from M1 cell lysates. […]

Chain of cullin 2 (endogenous, M1 cells) (Q9D4H8 whole entry): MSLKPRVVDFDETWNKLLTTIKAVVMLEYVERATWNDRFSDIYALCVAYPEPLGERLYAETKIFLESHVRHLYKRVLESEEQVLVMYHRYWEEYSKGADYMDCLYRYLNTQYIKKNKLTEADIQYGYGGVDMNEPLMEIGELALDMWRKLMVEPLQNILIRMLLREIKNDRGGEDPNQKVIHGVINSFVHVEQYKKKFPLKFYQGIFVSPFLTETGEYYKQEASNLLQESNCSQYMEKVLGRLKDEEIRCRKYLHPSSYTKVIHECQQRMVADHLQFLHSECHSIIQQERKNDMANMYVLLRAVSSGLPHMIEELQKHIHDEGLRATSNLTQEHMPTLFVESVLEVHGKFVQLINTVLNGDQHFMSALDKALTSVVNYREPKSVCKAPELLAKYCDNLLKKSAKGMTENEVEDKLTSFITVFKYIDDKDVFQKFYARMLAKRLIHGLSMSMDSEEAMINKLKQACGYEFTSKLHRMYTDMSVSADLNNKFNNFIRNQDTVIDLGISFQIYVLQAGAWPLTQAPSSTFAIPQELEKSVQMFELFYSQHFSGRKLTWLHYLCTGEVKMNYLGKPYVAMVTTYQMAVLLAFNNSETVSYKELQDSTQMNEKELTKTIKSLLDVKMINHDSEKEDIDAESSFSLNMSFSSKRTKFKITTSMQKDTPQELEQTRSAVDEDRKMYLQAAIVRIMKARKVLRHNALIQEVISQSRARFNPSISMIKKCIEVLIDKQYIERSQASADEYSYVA
Chain of JAK1 (endogenous, M1 cells) (P52332 whole entry): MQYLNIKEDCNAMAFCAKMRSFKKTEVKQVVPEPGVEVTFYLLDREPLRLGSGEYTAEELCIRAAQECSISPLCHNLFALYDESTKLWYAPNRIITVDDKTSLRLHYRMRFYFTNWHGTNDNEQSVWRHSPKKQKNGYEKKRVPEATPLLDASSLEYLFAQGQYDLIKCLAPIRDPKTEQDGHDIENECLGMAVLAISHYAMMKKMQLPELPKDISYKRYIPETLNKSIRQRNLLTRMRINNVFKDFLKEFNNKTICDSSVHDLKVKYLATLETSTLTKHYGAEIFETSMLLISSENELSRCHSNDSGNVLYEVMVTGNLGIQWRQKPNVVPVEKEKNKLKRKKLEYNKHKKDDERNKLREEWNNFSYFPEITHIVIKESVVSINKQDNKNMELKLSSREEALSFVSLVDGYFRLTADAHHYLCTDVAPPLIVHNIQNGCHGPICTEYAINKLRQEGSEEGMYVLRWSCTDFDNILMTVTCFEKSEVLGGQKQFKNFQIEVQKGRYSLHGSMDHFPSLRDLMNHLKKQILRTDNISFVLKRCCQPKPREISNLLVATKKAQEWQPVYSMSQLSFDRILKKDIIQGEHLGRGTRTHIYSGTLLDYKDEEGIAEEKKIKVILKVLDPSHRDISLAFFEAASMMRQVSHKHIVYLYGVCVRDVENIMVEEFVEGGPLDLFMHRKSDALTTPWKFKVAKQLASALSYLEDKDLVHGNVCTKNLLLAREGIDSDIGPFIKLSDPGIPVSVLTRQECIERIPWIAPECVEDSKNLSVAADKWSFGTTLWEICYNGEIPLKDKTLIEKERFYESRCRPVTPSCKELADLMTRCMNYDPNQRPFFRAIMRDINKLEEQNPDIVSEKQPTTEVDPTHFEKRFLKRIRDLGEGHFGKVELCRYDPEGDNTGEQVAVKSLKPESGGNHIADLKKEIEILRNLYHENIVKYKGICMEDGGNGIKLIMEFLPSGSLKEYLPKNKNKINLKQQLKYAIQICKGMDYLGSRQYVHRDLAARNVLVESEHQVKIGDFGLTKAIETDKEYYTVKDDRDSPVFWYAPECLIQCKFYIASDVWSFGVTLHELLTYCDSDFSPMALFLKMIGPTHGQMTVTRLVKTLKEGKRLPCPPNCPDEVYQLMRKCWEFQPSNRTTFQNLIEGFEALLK
T4 sequence (P08515 whole entry): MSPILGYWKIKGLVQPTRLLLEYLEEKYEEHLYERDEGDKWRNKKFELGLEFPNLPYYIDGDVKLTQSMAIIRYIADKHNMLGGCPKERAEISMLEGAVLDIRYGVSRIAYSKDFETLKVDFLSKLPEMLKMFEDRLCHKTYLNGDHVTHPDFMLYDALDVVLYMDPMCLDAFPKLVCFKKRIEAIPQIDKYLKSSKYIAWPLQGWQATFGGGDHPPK

B1: elongin C containing a myc epitope (other, mouse)
chain: DQKLISEEDLMDGEEKTYGGCEGPDAMYVKLISSDGHEFIVKREHALTSGTIKAMLSGPGQFAENETNEVNFREIPSHVLSKVCMYFTYKVRYTNSSTEIPEFPIAPEIALELLMAANFLDC
notes: Transiently expressed in 293T cells; also called myc-elongin C
Consider B1, for which the binding result in experiment [1] is on record as “no binding”.

B2: elongin B containing a FLAG epitope (other, mouse)
chain: DYKDDDDKMDVFLMIRRHKTTIFTDAKESSTVFELKRIVEGILKRPPEEQRLYKDDQLLDDGKTLGECGFTSQTARPQAPATVGLAFRADDTFEALRIEPFSSPPELPDVMKPQDSGGSANEQAVQ
notes: Transiently expressed in 293T cells; also called FLAG-elongin B
With B2, the binding result in experiment [1] is recorded as “no binding”.

B3: N-terminally FLAG-tagged full-length SOCS-1 (other, mouse)
chain: DYKDDDDKMVARNQVAADNAISPAAEPRRRSEPSSSSSSSSPAAPVRPRPCPAVPAPAPGDTHFRTFRSHSDYRRITRTSALLDACGFYWGPLSVHGAHERLRAEPVGTFLVRDSRQRNCFFALSVKMASGPTSIRVHFQAGRFHLDGSRETFDCLFELLEHYVAAPRRMLGAPLRQRRVRPLQELCRQRIVAAVGRENLARIPLNPVLRDYLSSFPFQI
notes: Stably expressed in M1 cells; also called FLAG-tagged SOCS-1; intact SOCS-1
As to B3, the binding result in experiment [2], in experiment [3], in experiment [4] and in experiment [5] was “binds” in each case.

B4: elongin B (endogenous, murine M1 cells) (other, UniProt P62869 1-118, looked up)
chain: MDVFLMIRRHKTTIFTDAKESSTVFELKRIVEGILKRPPEEQRLYKDDQLLDDGKTLGECGFTSQTARPQAPATVGLAFRADDTFEALRIEPFSSPPELPDVMKPQDSGGSANEQAVQ
notes: Endogenous protein from cell lysate; also called 18 kDa band
For the molecule B4, the binding result in experiment [6] is “no binding”.
